In paper PMC3228899 (Nature, 2011):
One block for each binder: values may come before it.

Experiments:
[1] = target: 3HA-Cln2-Cdk1 complex (budding yeast | budding yeast …, UniProt P20438 1-545; P00546 1-298)
[2] = target: Clb5-TAP-Cdk1 complex (budding yeast | budding yeast …, UniProt P30283 1-435; P00546 1-298); assay: pull-down
Clb5-TAP-Cdk1 complex, sequence (P30283 whole entry, chain 1 of 2): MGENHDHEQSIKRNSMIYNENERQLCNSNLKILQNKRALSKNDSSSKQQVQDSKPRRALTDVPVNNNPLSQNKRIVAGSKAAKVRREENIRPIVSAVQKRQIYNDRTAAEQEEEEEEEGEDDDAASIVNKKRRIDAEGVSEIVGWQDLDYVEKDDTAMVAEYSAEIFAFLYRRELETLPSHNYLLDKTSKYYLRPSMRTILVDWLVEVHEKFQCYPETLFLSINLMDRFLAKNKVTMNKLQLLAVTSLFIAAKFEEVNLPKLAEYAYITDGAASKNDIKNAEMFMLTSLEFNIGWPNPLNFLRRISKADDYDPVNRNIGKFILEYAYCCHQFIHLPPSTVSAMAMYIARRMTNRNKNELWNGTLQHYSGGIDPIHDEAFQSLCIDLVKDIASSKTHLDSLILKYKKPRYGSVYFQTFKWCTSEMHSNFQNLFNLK
Clb5-TAP-Cdk1 complex, sequence (P00546 whole entry, chain 2 of 2): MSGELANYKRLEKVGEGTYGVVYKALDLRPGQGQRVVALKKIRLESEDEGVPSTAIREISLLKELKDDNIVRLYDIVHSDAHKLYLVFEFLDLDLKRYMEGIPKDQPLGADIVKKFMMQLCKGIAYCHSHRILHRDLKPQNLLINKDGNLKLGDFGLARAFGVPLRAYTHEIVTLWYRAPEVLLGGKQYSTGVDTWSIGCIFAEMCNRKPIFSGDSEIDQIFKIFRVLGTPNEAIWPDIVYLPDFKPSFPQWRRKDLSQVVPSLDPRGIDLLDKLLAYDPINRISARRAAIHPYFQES

3HA-Cln2-Cdk1 complex, sequence (P20438 whole entry, chain 1 of 2): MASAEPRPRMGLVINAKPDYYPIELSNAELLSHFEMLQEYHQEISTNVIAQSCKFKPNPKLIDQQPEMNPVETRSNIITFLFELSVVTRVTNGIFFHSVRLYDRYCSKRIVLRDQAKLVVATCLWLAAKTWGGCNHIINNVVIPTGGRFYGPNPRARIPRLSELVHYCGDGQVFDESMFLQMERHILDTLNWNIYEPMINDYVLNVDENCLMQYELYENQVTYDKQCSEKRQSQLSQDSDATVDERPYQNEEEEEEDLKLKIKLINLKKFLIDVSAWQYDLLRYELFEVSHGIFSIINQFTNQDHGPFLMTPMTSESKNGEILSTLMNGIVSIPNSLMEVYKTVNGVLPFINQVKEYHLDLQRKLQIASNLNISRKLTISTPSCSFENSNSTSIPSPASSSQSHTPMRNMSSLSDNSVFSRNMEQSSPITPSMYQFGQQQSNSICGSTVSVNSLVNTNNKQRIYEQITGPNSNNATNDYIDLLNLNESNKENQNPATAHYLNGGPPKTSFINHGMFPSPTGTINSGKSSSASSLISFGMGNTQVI
3HA-Cln2-Cdk1 complex, sequence (P00546 whole entry, chain 2 of 2): as the sequence (P00546 whole entry, chain 2 of 2) above

stoichiometry N [1]: ~1 Cks1:Cdk1
B1: Cks1 (endogenous, in yeast) (natural protein, UniProt P20486 1-150, looked up)
chain: MYHHYHAFQGRKLTDQERARVLEFQDSIHYSPRYSDDNYEYRHVMLPKAMLKVIPSDYFNSEVGTLRILTEDEWRGLGITQSLGWEHYECHAPEPHILLFKRPLNYEAELRAATAAAQQQQQQQQQQQQQQQQHQTQSISNDMQVPPQIS

binding result [2]: binds
B2: full-length Sic1 (natural protein, budding yeast, UniProt P38634 1-284, looked up)
chain: MTPSTPPRSRGTRYLAQPSGNTSSSALMQGQKTPQKPSQNLVPVTPSTTKSFKNAPLLAPPNSNMGMTSPFNGLTSPQRSPFPKSSVKRTLFQFESHDNGTVREEQEPLGRVNRILFPTQQNVDIDAAEEEEEGEVLLPPSRPTSARQLHLSLERDEFDQTHRKKIIKDVPGTPSDKVITFELAKNWNNNSPKNDARSQESEDEEDIIINPVRVGKNPFASDELVTQEIRNERKRAMLRENPDIEDVITYVNKKGEVVEKRRLTDEEKRRFKPKALFQSRDQEH
